We go through 7 molecules from patent US20150368327A1 (YOKOHAMA CITY UNIVERSITY, published 2015).

For assay [1], the target named is T1, human Sema 3A protein (human, UniProt Q14563 21-771, limits assumed).
T1 construct: also called Human Sema 3A antigen; human-derived Sema 3A protein
T1 sequence (looked up): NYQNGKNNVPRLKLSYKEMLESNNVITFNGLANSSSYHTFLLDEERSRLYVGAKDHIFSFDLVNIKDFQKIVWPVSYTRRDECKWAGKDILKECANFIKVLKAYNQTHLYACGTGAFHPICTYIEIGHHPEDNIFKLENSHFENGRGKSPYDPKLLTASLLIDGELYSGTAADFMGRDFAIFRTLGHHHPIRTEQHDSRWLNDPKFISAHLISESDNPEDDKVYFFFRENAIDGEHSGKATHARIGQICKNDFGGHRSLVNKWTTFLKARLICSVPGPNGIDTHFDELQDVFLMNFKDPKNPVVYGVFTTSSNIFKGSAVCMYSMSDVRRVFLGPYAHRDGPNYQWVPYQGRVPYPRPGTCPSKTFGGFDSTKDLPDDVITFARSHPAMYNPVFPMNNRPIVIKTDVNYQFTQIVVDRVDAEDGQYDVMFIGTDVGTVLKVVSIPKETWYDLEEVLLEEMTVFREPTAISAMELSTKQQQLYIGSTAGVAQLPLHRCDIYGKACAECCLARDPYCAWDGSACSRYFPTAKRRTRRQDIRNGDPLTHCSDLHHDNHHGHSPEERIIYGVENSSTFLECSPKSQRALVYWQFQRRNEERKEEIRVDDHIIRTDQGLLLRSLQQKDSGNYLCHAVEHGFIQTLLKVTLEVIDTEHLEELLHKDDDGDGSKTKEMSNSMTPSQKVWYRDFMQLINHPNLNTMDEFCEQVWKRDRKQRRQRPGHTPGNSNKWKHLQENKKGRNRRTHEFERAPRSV
In words: direct solid phase ELISA screening with human Sema 3A as antigen. A general note: An ELISA detects its analyte on a solid surface through an enzyme-linked reagent.

The target in assay [2] is T2, mouse Sema 3A protein (mouse, UniProt O08665 21-772, limits assumed).
T2 construct: Produced from mouse Sema 3A protein expressing cells; also called Mouse Sema 3A antigen
T2 sequence (looked up): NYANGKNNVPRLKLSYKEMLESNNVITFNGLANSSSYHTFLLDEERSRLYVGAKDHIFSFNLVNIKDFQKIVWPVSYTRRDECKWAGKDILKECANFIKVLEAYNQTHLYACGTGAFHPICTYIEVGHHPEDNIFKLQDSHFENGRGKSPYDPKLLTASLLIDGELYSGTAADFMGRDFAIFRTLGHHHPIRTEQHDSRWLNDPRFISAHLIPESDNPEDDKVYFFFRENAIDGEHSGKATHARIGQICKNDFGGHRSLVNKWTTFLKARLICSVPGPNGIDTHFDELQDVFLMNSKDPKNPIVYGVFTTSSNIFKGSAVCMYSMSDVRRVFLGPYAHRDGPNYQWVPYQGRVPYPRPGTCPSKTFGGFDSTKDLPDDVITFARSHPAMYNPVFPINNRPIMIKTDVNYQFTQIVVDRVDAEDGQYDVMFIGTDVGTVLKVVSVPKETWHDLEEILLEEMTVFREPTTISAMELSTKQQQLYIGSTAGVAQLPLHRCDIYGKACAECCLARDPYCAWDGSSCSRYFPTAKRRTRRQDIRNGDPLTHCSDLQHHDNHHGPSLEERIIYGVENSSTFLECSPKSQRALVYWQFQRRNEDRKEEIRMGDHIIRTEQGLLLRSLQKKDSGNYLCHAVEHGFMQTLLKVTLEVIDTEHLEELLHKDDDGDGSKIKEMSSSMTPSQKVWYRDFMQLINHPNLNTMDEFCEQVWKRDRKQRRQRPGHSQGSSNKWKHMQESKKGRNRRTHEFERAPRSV
In words: direct solid phase ELISA screening with mouse Sema 3A as antigen. Here is the method: A direct solid phase ELISA was carried out according to the following process. In Day 6 after the step 2-2), 2.5 μg/mL of mouse Sema 3A protein was dispensed into a 384 well Maxisorp (Nunc) by 20 μL each and left to stand overnight. Ovalbumin (OA) and rabbit IgG (rIgG) were immobilized in the plate as negative controls in similar manner in order to examine the specificity of antibodies. On the next day, the content in the plate was removed and 45 μL of blocking solution (PBS buffer containing 1% BSA) was added thereto, followed by incubation at room temperature for one hour. The plate was washed five times with 120μL/well of ELISA washing buffer (PBS containing 0.05 wt % Tween 20), to which were added culture supernatants derived from the colony obtained by selection in the step 2-2) by 25 μL/well and then incubated at room temperature for one hour. The plate was washed five times with 120 μL/well of ELISA washing solution and then to which was added 25 μL of diluent in which a secondary antibody was diluted 2000 times with a blocking buffer and incubated at room temperature for 45 minutes. Anti-chicken IgM-HRP (Bethyl Laboratories, Inc.) was used as a secondary antibody. […] Subsequently, the reaction was quenched with 25 μL of 1N sulfuric acid to determine the absorbance at 450 nm.

Assay [3] has as its target T2, mouse Sema 3A protein. In words: competitive ELISA on plate-coated mouse Sema 3A; competitor biotin-labelled avian-mouse chimeric antibody (clone No. 4-2) at 60 ng/mL. Here is the method:
(§1) The obtained clone No. 4-2-derived avian-mouse chimeric antibody in Example 1, the obtained humanized antibodies in Example 2 (Humanized-1 and Humanized-2) and avian-human chimeric antibody were subjected to competitive ELISA to evaluate affinity to the antigen. CL18M (+) avian-mouse chimeric antibody, which served as a negative control, was also measured for affinity to the antigen. Particular measurement conditions were as follows.
(§2) Firstly, 2.5 μg/mL of antigen (mouse and human Sema 3A protein) was dispensed into a 384 Well MaxiSorp Plate (Nunc) and reacted overnight at 4° C. in order to coat the plate with the antigen. The next day, the plate was washed three times with 50 μL/well of washing solution (PBS containing 0.05% Tween 20), to which was added 25 μL/well of blocking solution (PBS containing 1% bovine serum albumin) and the mixture was reacted for 30 minutes. Each of humanized antibodies (Humanized-1 and Humanized-2), avian-human chimeric antibody and avian-mouse chimeric antibody was subjected to serial doubling dilution, to which was mixed anti-Sema 3A avian-mouse chimeric antibody labeled with biotin to the final concentration of 60 ng/mL, and the mixture was reacted with the antigen solid phase plate which was washed three times with 50 μL/well of washing solution for one hour. The plate was washed five times with 50 μL/well of washing solution, to which was added 20 μL/well of diluent in which streptavidin labeled with horseradish peroxidase (HRP) (Thermo Fisher Scientific K.K.) was diluted 10000 times with PBS buffer and the mixture was reacted for 30 minutes. The plate was washed five times with 50 μL/well of washing solution, to which was added 20 μL/well of TMB+(Dako) and the mixture was chromogenically reacted for 20 minutes. Subsequently, to the each well was added 20 μL, of 1M sulfuric acid to quench the reaction. The absorbance was measured at 450 nm using Infinite M1000 (Tecan Trading AG).

Assay [4] addresses bovine serum albumin (BSA) (bovine, UniProt P02769 25-607). In words: antigen solid phase ELISA: coated BSA, anti-human lambda light chain-HRP, A450. Here is the method: (§3) The obtained avian-mouse chimeric antibody in Example 1 and the obtained humanized antibodies (Humanized-1 and Humanized-2) and avian-human chimeric antibody in Example 2 were measured for antigenic specificity by antigen solid phase ELISA with PBS buffer. The obtained avian-mouse chimeric antibody in Example 1, which was labeled with biotin, was also measured for antigenic specificity. CL18M (+) avian-mouse chimeric antibody, which served as a negative control, was also measured for antigenic specificity. Particular measurement conditions were as follows.
(§4) Firstly, 2.5 μg/mL of antigen (mouse and human Sema 3A protein) was dispensed into a 384 Well MaxiSorp Plate (Nunc) and reacted overnight at 4° C. in order to coat the plate with the antigen. Otherwise, ovalbumin (OVA) and bovine serum albumin (BSA) were immobilized in the plate as negative controls in similar manner in order to examine specificity of antibodies. After reaction, the plate was washed three times with 50 μL/well of washing solution (PBS containing 0.05% Tween 20), to which was added 25 μL/well of blocking solution (PBS buffer containing 1% bovine serum albumin), and the mixture was reacted for 30 minutes. The resultant product was washed three times with 50 μL/well of washing solution, to which were added 20 μL/well of respective antibodies and the mixture was reacted for one hour. The resultant product was washed five times with 50 μL/well of washing solution, to which was added 20 μL of diluent in which anti-human λ light chain goat antibody labeled with horseradish peroxidase (HRP) (SouthernBiotech) was diluted 4000 times with PBS buffer, in which anti-mouse IgG2A goat antibody labeled with horseradish peroxidase (HRP) (Bethyl Laboratories, Inc.) was diluted 2000 times with PBS buffer or in which streptavidin labeled with horseradish peroxidase (HRP) (Thermo Fisher Scientific K.K.) was diluted 10000 times with PBS buffer and the mixture was reacted for one hour. […] The absorbance was measured at 450 nm using Infinite M1000 (Tecan Trading AG).

Assay [5] has as its target T1, human Sema 3A protein. In words: competitive ELISA on plate-coated human Sema 3A; competitor biotin-labelled avian-mouse chimeric antibody (clone No. 4-2) at 60 ng/mL. The protocol:
as §1, §2

In another assay the target is T3, ovalbumin (OVA) (UniProt P01012 2-386).
T3 sequence (looked up): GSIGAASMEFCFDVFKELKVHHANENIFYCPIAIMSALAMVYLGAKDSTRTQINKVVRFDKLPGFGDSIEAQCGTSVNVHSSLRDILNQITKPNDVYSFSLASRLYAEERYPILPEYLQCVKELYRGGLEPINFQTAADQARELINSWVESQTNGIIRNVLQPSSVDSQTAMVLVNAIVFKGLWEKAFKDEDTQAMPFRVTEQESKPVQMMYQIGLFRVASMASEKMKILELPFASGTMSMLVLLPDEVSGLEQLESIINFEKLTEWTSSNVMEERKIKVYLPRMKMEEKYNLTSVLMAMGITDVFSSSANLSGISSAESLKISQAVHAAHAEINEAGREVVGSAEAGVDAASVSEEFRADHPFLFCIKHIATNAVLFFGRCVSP
In words: antigen solid phase ELISA: coated ovalbumin, anti-human lambda light chain-HRP, A450. Here is the method: as §3, §4

Usually IC50 stands for the midpoint of a concentration-inhibition curve. Read a high IC50 as lower potency.

Changes are numbered by the printed parent chain.

bovine serum albumin (BSA), sequence (P02769 25-607 limits assumed): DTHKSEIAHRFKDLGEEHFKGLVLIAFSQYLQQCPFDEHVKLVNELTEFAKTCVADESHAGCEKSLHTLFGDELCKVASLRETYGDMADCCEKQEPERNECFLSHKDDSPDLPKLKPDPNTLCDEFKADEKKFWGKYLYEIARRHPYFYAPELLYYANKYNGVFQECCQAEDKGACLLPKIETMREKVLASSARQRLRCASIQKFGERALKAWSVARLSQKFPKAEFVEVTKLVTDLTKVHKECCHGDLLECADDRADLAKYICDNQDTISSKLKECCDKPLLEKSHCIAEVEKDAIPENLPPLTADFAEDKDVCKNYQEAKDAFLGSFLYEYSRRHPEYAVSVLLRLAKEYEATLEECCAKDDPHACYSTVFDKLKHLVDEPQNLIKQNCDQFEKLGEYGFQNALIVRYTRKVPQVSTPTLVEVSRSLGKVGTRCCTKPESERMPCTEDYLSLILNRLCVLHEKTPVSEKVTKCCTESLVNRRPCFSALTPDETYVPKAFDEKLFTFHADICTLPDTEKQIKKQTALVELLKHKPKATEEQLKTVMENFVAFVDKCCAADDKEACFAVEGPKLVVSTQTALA

B1: Anti-Sema 3A avian-mouse chimeric antibody (clone No. 165 strain-derived) (antibody, V domains shown)
VH: AVTLDESGGGLQTPGGGLSLVCKASGFTFSSYEMQWVRQAPGKGLEWVAGIYTGSTWYGAAVKGRATISRDNGQSTVRLQLNNLRAEDTAIYYCAKSGIGVNSAAFIDAWGHGTEVIVSS
VL: ALTQPASVSANPGETVKITCSGGGSYGGSYYYGWYQQKAPGSAPVTVIYNNNKRPSNIPSRFSGSLSGSTNTLTITGVRADDEAVYFCGSADNSGTAFGAGTTLTVL
notes: IgG from DT40 cells in which the constant region of chicken IgM was replaced with that of mouse IgG
On to B1, for which the binding result with human Sema 3A protein [1] is recorded as “binds”.

B2: Anti-Sema 3A avian antibody (clone No. 255-72 strain-derived) (antibody, V domains shown)
VH: B1 VH with G17A, T53S, A90G, I91T, V101F, A105G, F106S
VL: B1 VL with G33S, Y35H, A39S, P44L, N50Y, N57D, T96S
notes: Avian (chicken) IgM
As to B2, in the assay with mouse Sema 3A protein [2], the binding result is listed as “binds”.

B3: Anti-Sema 3A avian antibody (clone No. 240-40 strain-derived) (antibody, V domains shown)
VH: AVTLDESGGGLQTPGGALSLVCKASGFTFSSYDMNWVRQAPGKGLEWVAGIYSGSSTYYGAAVKGRATISRDNGQSTLRLQLNNLRAEDTGIYYCAKSAIPVNSAGSIDAWGHGTEVIVSS
VL: B1 VL with G33S, Y35H, A39S, P44L, N50Y, N57D, N93T
notes: Avian (chicken) IgM
With B3, the binding result with mouse Sema 3A protein [2] was “binds”.

B4: Anti-Sema 3A avian-mouse chimeric antibody (clone No. 582 strain-derived) (antibody, V domains shown)
VH: B1 VH with G17A, F29M, G50A, G54R, A90G, I91T, V101L
VL: B1 VL with N50T
notes: as for B1
B4: the binding result with human Sema 3A protein [1] is “binds”.

B5: Anti-Sema 3A avian-human chimeric antibody (clone No. 4-2-derived) (antibody, human IgG1)
heavy: not shown
light: ALTQPASVSANLGGTVKITCSGGGSYTGSYYYGWYQQKSPGSALVTMIYYNNKRPSDIPSRFSGSLSGSTNTLTITGVRADDEAVYFCGSADNSGDAFGAGTTLTVLGQPKANPTVTLFPPSSEELQANKATLVCLISDFYPGAVTVAWKADSSPVKAGVETTTPSKQSNNKYAASSYLSLTPEQWKSHRSYSCQVTHEGSTVEKTVAPTECS
For the molecule B5, the IC50 is 0.112 µg/mL with mouse Sema 3A protein [3] and 0.054 µg/mL with human Sema 3A protein [5]. Further, the binding result (in assay [4]; in the assay with ovalbumin (OVA)) was “no binding (tested: about 2 µg/mL)” in each case.

B6: Anti-Sema 3A humanized antibody (Humanized-1) (clone No. 4-2 strain-derived) (antibody, human IgG1, lambda, V domains shown)
VH: EVQLLESGGGLVQPGGSLRLSCAASGFTFSSYPMGWVRQAPGKGLEWVAGIDDDGDSDTRYAPAVKGRATISRDNSKNTVYLQMNSLRAEDTAVYYCAKHTGIGANSAGSIDAWGQGTLVTVSS
VL: SYELTQPPSVSVSPGQTARITCSGGGSYTGSYYYGWYQQKPGQAPVTMIYYNNKRPSDIPERFSGSLSGTTNTLTISGVQAEDEADYYCGSADNSGDAFGTGTKVTVLG
notes: Human IgG1 heavy and human lambda light constant regions
As to B6, the values for the half-maximal inhibitory concentration (IC50) with mouse Sema 3A protein [3] and in the assay with human Sema 3A protein [5] were 0.12 µg/mL and 0.071 µg/mL, respectively. Moreover, the binding result (in assay [4]; in the assay with ovalbumin (OVA)) was “no binding (tested: about 2 µg/mL)” each time.

B7: Anti-Sema 3A humanized antibody (Humanized-2) (clone No. 4-2 strain-derived) (antibody, human IgG1, lambda, V domains shown)
VH: B6 VH
VL: B6 VL with M48V
notes: as for B6
For B7, the concentration for half-maximal inhibition (IC50) in the assay with mouse Sema 3A protein [3] stood at 0.157 µg/mL; with human Sema 3A protein [5] it was 0.101 µg/mL. For the same molecule, the binding result (in assay [4]; in the assay with ovalbumin (OVA)) was “no binding (tested: about 2 µg/mL)” in each case.
